What was measured:
integrin α5β1 = target: T1, integrin α5β1 (human, UniProt P08648 42-1049; P05556 21-798); assay: flow cytometry on HMVEC-d; dis-Fc binding with 5-8 fold excess mAb SAM-1 (competitor) vs control mAb
T1 construct: whole, on cells; Native integrin on HMVEC-d; also called CD49e
Protocol: (§1) Prior to performing binding studies, HMVEC-d were removed from culture vessels using trypsin-EDTA. The cells were washed in media containing serum and resuspended in binding medium which consisted of PBS containing 1 mM Ca2+, 1 mM Mg2+ and 0.5 mM Mn2+, 0.1% sodium azide, 10% Normal goat serum, 2% rabbit serum and 2% fetal bovine serum.
(§2) One hundred microliters of cell suspension, containing 200,000 to 500,000 HMVEC-d, were added to 12×75 mm plastic test tubes. Monoclonal antibodies specific for one of the integrins, or a control monoclonal antibody (CD29 or M15), were added to the cell suspensions at a concentration of 100 μg/ml (5-8 fold mass excess) 15 minutes prior to addition of disintegrin-Fc fusion proteins. ADAM disintegrin-Fc polypeptides and control Fc fusion polypeptides (P7.5II.Fc) were added, at various concentrations from 12.5 to 20 μg/ml, to the cell suspensions and incubated for 1 hour at 30° C. Unbound Fc polypeptides were washed away by centrifugation of cells in 2 mls of binding media. The washed cell pellets were resuspended in binding medium and then incubated at 30° C. for 30 minutes with goat anti-human Fc-specific biotinylated antibody at a concentration of 2.5 μg/ml for 30 minutes. After centrifugation and washing of the cell pellets, the cells were resuspended in binding medium and bound anti-human Fc-biotin was detected by adding streptavidin-phycoerythrin conjugate to the cell suspension at a 1:1000 dilution (1 μg/ml) and incubating at 30° C. for 30 minutes. The unbound streptavidin-phycoerythrin was washed away and the cells were resuspended in binding medium containing propidum iodide. The level of fluorescent binding (disintegrin-Fc binding) was determined by flow cytometry.
(§3) The level of binding of each ADAM disintegrin-Fc polypeptide was determined in the presence of anti-integrin specific mAb and in the presence of control mAb. Both the intensity of binding (MFI) and the percentage of cells binding were determined. Percent inhibition was calculated using the formula [1-(MFI control-MFI integrin mAb)/MFI control.

integrin αvβ3 = target: T2, integrin αvβ3 (human, UniProt P06756 31-1048; P05106 27-788); assay: flow cytometry on HMVEC-d; dis-Fc binding with 5-8 fold excess mAb LM609 (competitor) vs control mAb
T2 construct: whole, on cells; Native integrin on primary human dermal microvascular endothelial cells (HMVEC-d); also called CD51/61
Protocol: as §1, §2, §3

B1: ADAM-21dis-Fc (Fc fusion)
chain: TSCGNGVVEREEQCDCGSVQQCEQDACCLLNCTLRPGAACAFGLCCKDCKFMPSGELCRQEVNECDLPEWCNGTSHQCPEDRYVQDGIPCSDSAYCYQKRCNNHDQHCREIFGKDAKSASQNCYKEINSQGNRFGHCGINGTTYLKCHISDVFCGRVQCENVRDIPLLQDHFTLQHTHINGVTCWGIDYHLRMNISDIGEVKDGTVCGPGKICIHKKCVSLSVLSHVCLPETCNMKGICNNKHHCHCGYGWSPPYCQHRGYGGSIDSGPASAKRSCDKTHTCPPCPAPEAEGAPSVFLFPPKPKDTLMISRTPEVTCVVVDVSHEDPEVKFNWYVDGVEVHNAKTKPREEQYNSTYRVVSVLTVLHQDWLNGKEYKCKVSNKALPAPIEKTISKAKGQPREPQVYTLPPSRDELTKNQVSLTCLVKGFYPSDIAVEWESNGQPENNYKTTPPVLDSDGSFFLYSKLTVDKSRWQQGNVFSCSVMHEALHNHYTQKSLSLSPGK
notes: also called ADAM-21 disintegrin-Fc polypeptide
B1 was tested, and the “percent inhibition of binding” value (integrin α5β1) was 54%.

B2: ADAM-20dis-Fc (Fc fusion)
chain: TSCGNLVVEEGEECDCGTIRQCAKDPCCLLNCTLHPGAACAFGICCKDCKFLPSGTLCRQQVGECDLPEWCNGTSHQCPDDVYVQDGISCNVNAFCYEKTCNNHDIQCKEIFGQDARSASQSCYQEINTQGNRFGHCGIVGTTYVKCWTPDIMCGRVQCENVGVIPNLIEHSTVQQFHLNDTTCWGTDYHLGMAIPDIGEVKDGTVCGPEKICIRKKCASMVHLSQACQPKTCNMRGICNNKQHCHCNHEWAPPYCKDKGYGGSADSGPPPKNNMEGLNVMGKLRGSCDKTHTCPPCPAPEAEGAPSVFLFPPKPKDTLMISRTPEVTCVVVDVSHEDPEVKFNWYVDGVEVHNAKTKPREEQYNSTYRVVSVLTVLHQDWLNGKEYKCKVSNKALPAPIEKTISKAKGQPREPQVYTLPPSRDELTKNQVSLTCLVKGFYPSDIAVEWESNGQPENNYKTTPPVLDSDGSFFLYSKLTVDKSRWQQGNVFSCSVMHEALHNHYTQKSLSLSPGK
notes: also called ADAM-20 disintegrin-Fc polypeptide
In the case of B2, the “percent inhibition of binding” value (integrin αvβ3) is reported as 58%.

B3: ADAM-23dis-Fc (Fc fusion)
chain: TSCGNGYVEAGEECDCGFHVECYGLCCKKCSLSNGAHCSDGPCCNNTSCLFQPRGYECRDAVNECDITEYCTGDSGQCPPNLHKQDGYACNQNQGRCYNGECKARDNQCQYIWGTKAAGSDKFCYEKLNTEGTEKGNCGKDGDRWIQCSKHDVFCGFLLCTNLTRAPRIGQLQGEIIPTSFYHQGRVIDCSGAHVVLDDDTDVGYVEDGTPCGPSMMCLDRKCLQIQALNMSSCPLDSKGKVCSGHGVCSNEATCICDFTWAGTDCSIRDPVRNLHPPKDEGPKGPSATNRSCDKTHTCPPCPAPEAEGAPSVFLFPPKPKDTLMISRTPEVTCVVVDVSHEDPEVKFNWYVDGVEVHNAKTKPREEQYNSTYRVVSVLTVLHQDWLNGKEYKCKVSNKALPAPIEKTISKAKGQPREPQVYTLPPSRDELTKNQVSLTCLVKGFYPSDIAVEWESNGQPENNYKTTPPVLDSDGSFFLYSKLTVDKSRWQQGNVFSCSVMHEALHNHYTQKSLSLSPGK
notes: also called ADAM-23 disintegrin-Fc polypeptide
With B3 the “percent inhibition of binding” value (integrin α5β1) was 49%.

B4: ADAM-22dis-Fc (Fc fusion)
chain: TSCGNGFIETGEECDCGTPAECVLEGAECCKKCTLTQDSQCSDGLCCKKCKFQPMGTVCREAVNDCDIRETCSGNSSQCAPNIHKMDGYSCDGVQGICFGGRCKTRDRQCKYIWGQKVTASDKYCYEKLNIEGTEKGNCGKDKDTWIQCNKRDVLCGYLLCTNIGNIPRLGELDGEITSTLVVQQGRTLNCSGGHVKLEEDVDLGYVEDGTPCGPQMMCLEHRCLPVASFNFSTCLSSKEGTICSGNGVCSNELKCVCNRHWIGSDCNTYFPHNDDAKTGITLSGNGVAGTNGSCDKTHTCPPCPAPEAEGAPSVFLFPPKPKDTLMISRTPEVTCVVVDVSHEDPEVKFNWYVDGVEVHNAKTKPREEQYNSTYRVVSVLTVLHQDWLNGKEYKCKVSNKALPAPIEKTISKAKGQPREPQVYTLPPSRDELTKNQVSLTCLVKGFYPSDIAVEWESNGQPENNYKTTPPVLDSDGSFFLYSKLTVDKSRWQQGNVFSCSVMHEALHNHYTQKSLSLSPGK
notes: also called ADAM-22 disintegrin-Fc polypeptide
For B4, the “percent inhibition of binding” value (integrin α5β1) was 36% and the “percent inhibition of binding” value (integrin αvβ3) was 42%.

B5: ADAM-15dis-Fc (Fc fusion)
chain: TSCGNMFVEPGEQCDCGFLDDCVDPCCDSLTCQLRPGAQCASDGPCCQNCQLRPSGWQCRPTRGDCDLPEFCPGDSSQCPPDVSLGDGEPCAGGQAVCMHGRCASYAQQCQSLWGPGAQPAAPLCLQTANTRGNAFGSCGRNPSGSYVSCTPRDAICGQLQCQTGRTQPLLGSIRDLLWETIDVNGTELNCSWVHLDLGSDVAQPLLTLPGTACGPGLVCIDHRCQRVDLLGAQECRSKCHGHGVCDSNRHCYCEEGWAPPDCTTQLKATSSRSCDKTHTCPPCPAPEAEGAPSVFLFPPKPKDTLMISRTPEVTCVVVDVSHEDPEVKFNWYVDGVEVHNAKTKPREEQYNSTYRVVSVLTVLHQDWLNGKEYKCKVSNKALPAPIEKTISKAKGQPREPQVYTLPPSREEMTKNQVSLTCLVKGFYPSDIAVEWESNGQPENNYKTTPPVLDSDGSFFLYSKLTVDKSRWQQGNVFSCSVMHEALHNHYTQKSLSLSPGK
notes: also called ADAM-15 disintegrin-Fc polypeptide
In the case of B5, the “percent inhibition of binding” value (integrin α5β1) is reported as 30% and the “percent inhibition of binding” value (integrin αvβ3) is reported as 60%.

B6: ADAM-17dis-Fc (Fc fusion)
chain: TSCGNSRVDEGEECDPGIMYLNNDTCCNSDCTLKEGVQCSDRNSPCCKNCQFETAQKKCQEAINATCKGVSYCTGNSSECPPPGNAEDDTVCLDLGKCKDGKCIPFCEREQQLESCACNETDNSCKVCCRDLSGRCVPYVDAEQKNLFLRKGKPCTVGFCDMNGKCEKRVQDVIERFWDFIDQLSINTFGKFLADNRSCDKTHTCPPCPAPEAEGAPSVFLFPPKPKDTLMISRTPEVTCVVVDVSHEDPEVKFNWYVDGVEVHNAKTKPREEQYNSTYRVVSVLTVLHQDWLNGKEYKCKVSNKALPAPIEKTISKAKGQPREPQVYTLPPSRDELTKNQVSLTCLVKGFYPSDIAVEWESNGQPENNYKTTPPVLDSDGSFFLYSKLTVDKSRWQQGNVFSCSVMHEALHNHYTQKSLSLSPGK
notes: also called ADAM-17 disintegrin-Fc polypeptide
B6 was tested, and the “percent inhibition of binding” value (integrin αvβ3) was 50%.

Source: patent US20020042368A1 (IMMUNEX, published 2002)
